Here are results for two molecules from patent US20220169747A1 (CERTIS THERAPEUTICS, published 2022).

Bridges are numbered along the chain shown (N, C = ends).

Experiment [1] deals with T1, recombinant ErbB3/HER3 ECD (UniProt P21860 20-643, limits assumed).
T1 construct: extracellular domain; also called ErbB3 ECD
As to the kind of experiment: ELISA, plate coated with recombinant HER3 ECD, anti-mouse antibody-alkaline phosphatase, pNPP, A405 nm. On the procedure:
(§1) Polystyrene 96-well plates were coated with […], 3 μg/mL recombinant ErbB2 ECD, ErbB3 ECD, ErbB4 ECD or EGFR501 in PBS overnight at 4° C. The plates were blocked with 3% FCS in PBS for one hour at room temperature (RT). Plates were incubated with 10 μg/mL serially diluted purified antibody along with appropriate controls for one hour at RT. Following washing three times, plates were incubated with anti-mouse IgG AP conjugate (1:2000 dilutions) for one hour at RT.
On the technique in general: In an ELISA, binding on a coated surface is turned into a signal by an enzyme label.

For experiment [2], the target named is T2, control irrelevant peptide H-LEEKKGNYVVTDHC-NH2 coupled to KLH (also: coupled to KLH).
T2 construct: Synthetic negative control; also called control peptide; negative control peptide-KLH
T2 peptide: H-LEEKKGNYVVTDHC-NH2
As to the kind of experiment: ELISA, antigen on the plate, anti-mouse Ig-alkaline phosphatase, pNPP, A405nm. On the procedure:
(§2) Polystyrene 96-well plates were coated with 3% FCS in PBS for one hour at RT. A final peptide concentration of 1 mg/mL was achieved by diluting the peptide in 0.1% acetic acid. This peptide solution was further diluted to 30 μg/ml in 3% FCS-PBS. Plates were incubated with the linear or cyclic peptide immunogen coupled to KLH, HER2-ECD or negative control peptide-KLH, in dilution buffer (3% FCS-PBS) for one hour at RT. […] Following washing, plates were then incubated with anti-mouse Ig-Alkaline phosphatase (Sigma A-3688), (1:3000 dilutions) for one hour at RT.

In experiment [3] the target is T3, recombinant sEGFR ectodomain (EGFR501) (UniProt P00533 25-645, limits assumed).
T3 construct: extracellular domain; also called EGFR/HER1 ectodomain
Nature of the experiment: ELISA, plate coated with recombinant sEGFR ectodomain, anti-mouse antibody-alkaline phosphatase, pNPP, A405 nm. Here is the method:
as §1

Experiment [4] concerns the target T4, linear HER2 peptide immunogen H-CPLHNQEVTAEDGTQR-NH2 coupled to KLH (also: coupled to KLH).
T4 construct: Synthetic peptide; also called linear peptide; KLH-linear peptide
T4 peptide: H-CPLHNQEVTAEDGTQR-NH2
As to the kind of experiment: ELISA, antigen on the plate, antibody at 10 ug/mL, anti-mouse Ig-alkaline phosphatase, pNPP, A405nm. Here is the method:
as §2

For experiment [5], the target named is T5, cyclic HER2 peptide immunogen H-GCPLHNQEVTAEDGTQRC-NH2 coupled to KLH (human, disulfide 2-18 (inferred); also: coupled to KLH).
T5 construct: also called cyclised peptide; circularised peptide
T5 peptide: H-GCPLHNQEVTAEDGTQRC-NH2
The description is as above. On the procedure: as §2

For experiment [6], the target named is T6, recombinant ErbB4/HER4 ECD (UniProt Q15303 26-651, limits assumed).
T6 construct: extracellular domain; also called ErbB4 ECD
T6 sequence (looked up): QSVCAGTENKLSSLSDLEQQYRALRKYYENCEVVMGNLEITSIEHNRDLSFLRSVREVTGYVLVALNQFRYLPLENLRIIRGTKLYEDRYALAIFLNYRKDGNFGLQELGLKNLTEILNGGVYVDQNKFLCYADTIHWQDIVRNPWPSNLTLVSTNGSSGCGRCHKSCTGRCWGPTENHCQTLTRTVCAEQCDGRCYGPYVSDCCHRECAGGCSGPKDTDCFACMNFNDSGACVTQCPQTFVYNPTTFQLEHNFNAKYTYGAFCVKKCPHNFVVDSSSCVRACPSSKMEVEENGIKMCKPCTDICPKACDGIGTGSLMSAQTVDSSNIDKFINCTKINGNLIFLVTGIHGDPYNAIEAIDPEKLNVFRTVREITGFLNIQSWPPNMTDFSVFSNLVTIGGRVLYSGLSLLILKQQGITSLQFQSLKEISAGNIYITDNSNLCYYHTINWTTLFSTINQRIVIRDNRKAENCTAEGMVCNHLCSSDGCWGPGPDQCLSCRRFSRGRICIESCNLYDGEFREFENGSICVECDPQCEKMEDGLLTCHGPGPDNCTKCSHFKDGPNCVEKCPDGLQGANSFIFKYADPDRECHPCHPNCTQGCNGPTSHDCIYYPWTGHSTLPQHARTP
As to the kind of experiment: ELISA, plate coated with recombinant HER4 ECD, anti-mouse antibody-alkaline phosphatase, pNPP, A405 nm. On the procedure:
as §1

B1: mAb104 (antibody, IgG1, V domains shown)
VH: EVQLQQSGPELVKPGASVKISCKASGYSFTGYFMHWVRQSHVRSLEWIGRINPYNGDIRYNQNFKDKASLTVDKSSSTAYMELHRLTSEDSAVFYCASLNFAYWGQGTPVTVSA
VL: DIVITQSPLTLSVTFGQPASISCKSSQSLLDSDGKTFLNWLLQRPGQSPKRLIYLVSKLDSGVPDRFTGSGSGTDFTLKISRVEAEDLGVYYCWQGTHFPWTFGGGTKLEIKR
notes: Murine monoclonal purified from hybridoma supernatant
For the molecule B1, the binding result in experiment [1] is “no binding (tested: 10000 ng/ml)”; in experiment [2], “no binding (tested: 10 ug/mL)”; in experiment [3], “no binding (tested: 10000 ng/ml)”; in experiment [4], “binds”; in experiment [5], “binds”; in experiment [6], “no binding (tested: 10000 ng/ml)”.

B2: mAb106 (antibody, IgG1, V domains shown)
VH: QIQLVQSGPELKKPGETVKISCKASGYTFTDYGMNWVKQAPGKGLKWMGWINTYTGKPTYDDDFKGRFAFSLETSASTAYLQINNLKNEDMATYFCARRFLNTVAGRSVYFDYWGQGTTLTVSS
VL: QIVLTQSPALMSVSPGEKVTMTCSVSSSVGSMYWYQQKPRSSPKPWIYLTSNLASGVPPRFSGSGSGTSYSLTISSMEGEDAATYYCQQWSSNPPTFGAGTKLELKR
notes: as for B1
For B2, the binding result in experiment [2] is on record as “no binding (tested: 10 ug/mL)”; in experiment [4], “binds”; in experiment [5], “binds”.
